Assay results published in patent US6730779B2, “Antibody that specifically binds an Mch4 polypeptide” (IDUN Pharmaceuticals, Inc., priority 1996, dated 2004).

Assays:
Mch4 = target: T1, Mch4 (Homo sapiens, UniProt Q92851); test: Continuous fluorometric assay of recombinant Mch4 protease activity (kinetic parameters); conditions: for Km: tetrapeptide substrate, bacterially expressed GST-Mch4, ICE buffer pH 7.5, room temperature
T1 sequence (Q92851 194-372 isoform Q92851-2): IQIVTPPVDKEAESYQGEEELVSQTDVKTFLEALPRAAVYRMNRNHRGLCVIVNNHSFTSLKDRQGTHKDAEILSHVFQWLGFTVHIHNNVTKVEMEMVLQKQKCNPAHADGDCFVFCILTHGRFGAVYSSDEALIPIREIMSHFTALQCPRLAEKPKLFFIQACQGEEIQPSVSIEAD
T1 sequence (Q92851 373-479 isoform Q92851-2): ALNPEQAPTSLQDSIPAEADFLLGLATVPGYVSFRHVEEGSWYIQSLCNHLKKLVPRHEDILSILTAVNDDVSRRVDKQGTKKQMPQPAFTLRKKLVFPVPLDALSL
Experimental: The kinetic properties of bacterially expressed recombinant Mch4 were determined using the tetrapeptide substrates DEVD-AMC and YVAD-AMC in a continuous fluorometric assay (Table I). […] After induction with IPTG, bacterial extracts were prepared from E. coli expressing the recombinant fusion proteins. The extracts were adsorbed to glutathione-Sepharose resin, washed several times and then analyzed by SDS-PAGE.
The purified Mch4 GST-fusion protein was then used for further enzymatic analyses. The activity of Mch4 was measured using bacterial lysates prepared with ICE buffer (25 mM HEPES, 1 mM EDTA, 5 mM DTT, 0.1% CHAPS, 10% sucrose, pH 7.5) at room temperature (24-25° C.).

[1] = test system: MCF7 human breast carcinoma cell line; test: Apoptosis of MCF7 cells after transfection with Mch5B expression vector; conditions: 36 hours after transfection, control plasmid pcDNA3 about 50%
CPP32 [2] = target: T2, CPP32 (Homo sapiens, UniProt P42574); test: Kinetic comparison of CPP32 with tetrapeptide substrates; conditions: CPP32 versus Mch4
T2 sequence (P42574 29-175 limits assumed): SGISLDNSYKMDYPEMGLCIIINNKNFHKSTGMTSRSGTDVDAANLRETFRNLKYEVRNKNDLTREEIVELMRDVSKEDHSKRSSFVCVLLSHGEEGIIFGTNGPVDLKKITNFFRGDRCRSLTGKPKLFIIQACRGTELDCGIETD
T2 sequence (P42574 176-277 limits assumed): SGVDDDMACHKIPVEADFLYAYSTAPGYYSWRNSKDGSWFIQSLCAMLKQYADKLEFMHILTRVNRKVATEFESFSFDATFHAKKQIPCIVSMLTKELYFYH

CPP32 [3] = target: T2, CPP32; conditions: cited from earlier work
Sf9 cells = test: Induction of apoptosis in Sf9 cells by recombinant baculovirus expression; type: cell-based; conditions: about 48 h postinfection
Text: Briefly, Sf9 cells were infected with recombinant baculoviruses encoding full length proMch4 or full length CPP32 as a standard (Fernandes-Alnemri et al., J. Biol. Chem. 269:30761-30764 (1994)). Cells were then examined microscopically for morphological signs of apoptosis such as blebbing of the cytoplasmic membrane, condensation of nuclear chromatin and release of small apoptotic bodies. In addition the genomic DNA was examined for internucleosomal DNA cleavage.
For the construction of transfer vectors and recombinant baculoviruses, the full length proMch4 in pBluescript KS+ was excised with Bam HI and EcoRI and subcloned into a Bam HI/EcoRI cut pVL1393 vector (Invitrogen, San Diego, Calif.) to generate the pVL-proMch4 transfer vector. The pVL-CPP32 transfer vector was made as described previously (Fernandes-Alnemri et al., supra (1994)). […]
For-the induction of apoptosis in Sf9 cells by proMch4 and CPP32 cells were infected with recombinant baculoviruses AcNPV-proMch4 or AcNPV-CPP32. Apoptosis was measured microscopically by counting cells with the appropriate morphology (blebbing, nuclear condensation). Alternatively, internucleosomal DNA cleavage is assessed as a characteristic marker. […] The DNA samples were analyzed by electrophoresis in a 1.8% agarose gel containing ethidium bromide.

CC(=O)N[C@@H](CC(=O)O)C(=O)N[C@@H](CCC(=O)O)C(=O)N[C@H](C(=O)N[C@H](C=O)CC(=O)O)C(C)C [DEVD-CHO]
Ki (Mch4): 14 nM

Mch5B: FADD-like domain B of proMch5 (amino acid 128-205), expressed from pcDNA3 vector in MCF7 cells
percentage of transfected cells that were apoptotic [1]: about 80%

DEVD-AMC: fluorescent tetrapeptide substrate representing the PARP cleavage site
specificity of CPP32 for the substrate compared to Mch4 (ratio of Vmax/Km) (CPP32 [2]): > 500 fold | Km (Mch4): 130 µM

YVAD-AMC: tetrapeptide substrate representing the IL-1β cleavage site
KM for YVAD-AMC relative to KM for DEVD-AMC (CPP32 [3]): > 35 fold | Km (Mch4): 150 µM

B1: proMch4: full length proMch4 (SEQ ID NO:2) expressed in Sf9 cells by recombinant baculovirus (protein)
chain: MKSQGQHWYSSSDKNCKVSFREKLLIIDSNLGVQDVENLKFLCIGLVPNKKLEKSSSASDVFEHLLAEDLLSEEDPFFLAELLYIIRQKKLLQHLNCTKEEVERLLPTRQRVSLFRNLLYELSEGIDSENLKDMIFLLKDSLPKTEMTSLSFLAFLEKQGKIDEDNLTCLEDLCKTVVPKLLRNIEKYKREKAIQIVTPPVDKEAESYQGEEELVSQTDVKTFLEALPRAAVYRMNRNHRGLCVIVNNHSFTSLKDRQGTHKDAEILSHVFQWLGFTVHIHNNVTKVEMEMVLQKQKCNPAHADGDCFVFCILTHGRFGAVYSSDEALIPIREIMSHFTALQCPRLAEKPKLFFIQACQGEEIQPSVSIEADALNPEQAPTSLQDSIPAEADFLLGLATVPGYVSFRHVEEGSWYIQSLCNHLKKLVPRHEDILSILTAVNDDVSRRVDKQGTKKQMPQPAFTLRKKLVFPVPLDALSI
induction of apoptosis (morphology, internucleosomal DNA cleavage) (Sf9 cells): caused a significant percentage of the cells to undergo apoptosis
